Experimental data as given in US20110251126A1, “INTESTINAL TREATMENT” (priority 2008, published 2011).
Square brackets hold non-standard residues; d marks the D form. Ends that are not written are not given here. Nle = CCCC[C@H](N)C(=O)O

Target: human Y4 receptor (human, UniProt P50391 1-375)
Assay: cell-based or functional assay

Sequence of human Y4 receptor (P50391 whole entry): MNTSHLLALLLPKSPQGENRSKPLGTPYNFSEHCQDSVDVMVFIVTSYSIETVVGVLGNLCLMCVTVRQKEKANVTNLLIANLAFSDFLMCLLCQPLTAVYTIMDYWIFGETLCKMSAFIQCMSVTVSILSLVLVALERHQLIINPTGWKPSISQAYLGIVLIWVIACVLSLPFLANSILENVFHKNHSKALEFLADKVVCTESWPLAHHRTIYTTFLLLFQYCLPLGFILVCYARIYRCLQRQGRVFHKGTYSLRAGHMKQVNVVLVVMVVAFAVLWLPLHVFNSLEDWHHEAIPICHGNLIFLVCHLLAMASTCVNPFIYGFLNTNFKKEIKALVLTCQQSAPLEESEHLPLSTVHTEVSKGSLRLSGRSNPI

Row | Binder | agonist potency (inositol phosphate turnover, transfected COS-7 cells): fold greater at Y4 than at Y1 receptor [fold] | agonist potency (inositol phosphate turnover, transfected COS-7 cells): fold greater at Y4 than at Y2 receptor [fold]
1 | LEPVYPGDNATPEQ[Nle]AQYAADLRRYIN[Nle]LTRPRY (ends and bridges not checked) [[Nle17,Nle30]hPP3-36] | ≥ 200 | ≥ 1000
2 | PLEPVYPGENATPEQXAQYAADLRRYINXLTRPRY (norleucine (Nle) at positions 17 and 30, numbered on full-length hPP (SEQ ID No:3)) [[Glu10,Nle17,Nle30]hPP2-36] | ≥ 200 | ≥ 1000
3 | PLEPVYPGDNATPEQLAQYAADLRRYINSLTRPRY (ends and bridges not checked) [[Leu17; Ser30]hPP2-36] | ≥ 200 | ≥ 1000
4 | PLEPVYPGDNATPEQMAQYAADLRRYINQLTRPRY (ends and bridges not checked) [[Gln30]hPP2-36] | ≥ 200 | ≥ 1000
5 | PLEPVYPGENATPEQMAQYAADLRRYINMLTRPRY (ends and bridges not checked) [[Glu10]hPP2-36] | ≥ 200 | ≥ 1000
6 | APLEPVYPGDNATPEQMAQYAADLRRYINALTRPRY (ends and bridges not checked) [[Ala30]hPP] | ≥ 200 | ≥ 1000
7 | APLEPVYPGENATPEQLAQYAADLRRYINTLTRPRY (ends and bridges not checked) [[Glu10,Leu17,Thr30]hPP] | ≥ 200 | ≥ 1000
8 | APLEPVYPGDNATPEQMAQYAADLRRYINTLTRPRY (ends and bridges not checked) [[Thr30]hPP] | ≥ 200 | ≥ 1000
9 | APLEPVYPGDNATPEQXAQYAADLRRYINXLTRPRY (norleucine (Nle) at positions 17 and 30) [[Nle17,Nle30]hPP] | ≥ 200 | ≥ 1000
10 | APLEPVYPGDNATPEQMAQYAADLRRYINNLTRPRY (ends and bridges not checked) [[Asn30]hPP] | ≥ 200 | ≥ 1000
11 | APLEPVYPGDNATPEQLAQYAADLRRYINTLTRPRY (ends and bridges not checked) [[Leu17; Thr30]hPP] | ≥ 200 | ≥ 1000
12 | LEPVYPGDNATPEQMAQYAADLRRYINALTRPRY (ends and bridges not checked) [[Ala30]hPP3-36] | ≥ 200 | ≥ 1000
13 | LEPVYPGDNATPEQMAQYAADLRRYINQLTRPRY (ends and bridges not checked) [[Gln30]hPP3-36] | ≥ 200 | ≥ 1000
14 | LEPVYPGDNATPEQMAQYAADLRRYINTLTRPRY (ends and bridges not checked) [[Thr30]hPP3-36] | ≥ 200 | ≥ 1000
15 | LEPVYPGENATPEQMAQYAADLRRYINMLTRPRY (ends and bridges not checked) [[Glu10]hPP3-36] | ≥ 200 | ≥ 1000
16 | LEPVYPGDNATPEQMAQYAADLRRYINNLTRPRY (ends and bridges not checked) [[Asn30]hPP3-36] | ≥ 200 | ≥ 1000

Results, then the binder that gave them:

Row | agonist potency (inositol phosphate turnover, transfected COS-7 cells): fold greater at Y4 than at Y1 receptor [fold] | agonist potency (inositol phosphate turnover, transfected COS-7 cells): fold greater at Y4 than at Y2 receptor [fold] | Binder
17 | ≥ 200 | ≥ 1000 | PLEPVYPGDNATPEQMAQYAADLRRYINMLTRPRY-NH2 [hPP2-36]
18 | ≥ 200 | ≥ 1000 | PLEPVYPGDNATPEQMAQYAADLRRYINTLTRPRY (ends and bridges not checked) [[Thr30]hPP2-36]
19 | ≥ 200 | ≥ 1000 | PLEPVYPGENATPEQLAQYAADLRRYINTLTRPRY (ends and bridges not checked) [[Glu10,Leu17,Thr30]hPP2-36]
20 | ≥ 200 | ≥ 1000 | PLEPVYPGDNATPEQMAQYAADLRRYINALTRPRY (ends and bridges not checked) [[Ala30]hPP2-36]
21 | ≥ 200 | ≥ 1000 | PLEPVYPGDNATPEQXAQYAADLRRYINXLTRPRY (norleucine (Nle) at positions 17 and 30, numbered on full-length hPP (SEQ ID No:3)) [[Nle17,Nle30]hPP2-36]
22 | ≥ 200 | ≥ 1000 | PLEPVYPGDNATPEQLAQYAADLRRYINTLTRPRY (ends and bridges not checked) [[Leu17; Thr30]hPP2-36]
23 | ≥ 200 | ≥ 1000 | PLEPVYPGDNATPEQMAQYAADLRRYINNLTRPRY (ends and bridges not checked) [[Asn30]hPP2-36]
24 | ≥ 200 | ≥ 1000 | LEPVYPGENATPEQ[Nle]AQYAADLRRYIN[Nle]LTRPRY (ends and bridges not checked) [[Glu10,Nle17,Nle30]hPP3-36]
25 | ≥ 200 | ≥ 1000 | LEPVYPGDNATPEQMAQYAADLRRYINMLTRPRY-NH2 [hPP3-36]
26 | ≥ 200 | ≥ 1000 | APLEPVYPGDNATPEQLAQYAADLRRYINSLTRPRY (ends and bridges not checked) [[Leu17; Ser30]hPP]
27 | ≥ 200 | ≥ 1000 | APLEPVYPGENATPEQXAQYAADLRRYINXLTRPRY (norleucine (Nle) at positions 17 and 30) [[Glu10,Nle17,Nle30]hPP]
28 | ≥ 200 | ≥ 1000 | APLEPVYPGDNATPEQMAQYAADLRRYINQLTRPRY (ends and bridges not checked) [[Gln30]hPP]
29 | ≥ 200 | ≥ 1000 | APLEPVYPGENATPEQMAQYAADLRRYINMLTRPRY (ends and bridges not checked) [[Glu10]hPP]
30 | ≥ 200 | ≥ 1000 | LEPVYPGDNATPEQLAQYAADLRRYINTLTRPRY (ends and bridges not checked) [[Leu17; Thr30]hPP3-36]
31 | ≥ 200 | ≥ 1000 | LEPVYPGDNATPEQLAQYAADLRRYINSLTRPRY (ends and bridges not checked) [[Leu17; Ser30]hPP3-36]
32 | ≥ 200 | ≥ 1000 | LEPVYPGENATPEQLAQYAADLRRYINTLTRPRY (ends and bridges not checked) [[Glu10,Leu17,Thr30]hPP3-36]
